{"source": "the DeepSol protein solubility set", "data": [{"assay": "soluble on expression in E. coli; label from the status in PepcDB or PDB records", "values": [{"sequence": "MSLAYFGIYDGHGGAEASLYAKEHLMNTIVSQKLFWSENDDDVLKSIREGYIQTHYSMWREQEKWPKTSSGLPSTAGTTASIAFIRRGKIYIGHVGDSGIVLGYQNDKESANDGRWVATPLTEDHKPESYAEKMRIMSCGGKVVTKSGVPRVVWNRPRIGHKGPVRRSTPIDEIPFLAVARSLGDLWSYNSAMDEFVVSPVPDVSVIEIDPKKYRCLIFGSDGLWNVMSPKNAVDIVRNAEMENVRIALEGGNEWKNPSKLLVNEALDRWSRSNMKADNTSVVIIMLDPEGHHHHHH", "soluble on expression in E. coli": "not soluble"}, {"sequence": "AFEKKTANIYTYKSTSGVTSFSDIEPLDVDFSRYRFDCYACEVDSLIDWRKATLYLQPYKNDINKAALKYDIDPAFVRAVIHAESHFNPQAVSKQGAQGLMQLMPATAKELGVRNSLSAQQNIKGGVKHLARLLRKYKGDNKLASAAYNAGEGAVKRHGGIPPYKETQVYVERVGILHQRYGRFSH", "soluble on expression in E. coli": "not soluble"}, {"sequence": "MGTKREKDSLAFLLNSGARLLNNAFERRISEAGLGLTPGEARALLTVAVVDGSKQSDIAARLGIEPMTICAYLDKLQSLDLIERQQDPQDRRSKRIVLTKNSTDMLEAVRQEIDELVRHATRGLNEDEVALFRSFLQTLRDNLQPEQPGQSC", "soluble on expression in E. coli": "soluble"}, {"sequence": "GPEQVLDRASMHLANGLLGNPDSAAGLEVLLGGLKLRFVSGSAVAVTGAEGMVTLDGTELPLNKAVRVPPGAVLELGPAMFGIRYYLAVQGGISAQGEAAQGEAIRAGAALTFGRPNNHGSPEVNHPARRALDPERPVVARVSRGPQAQNDDAGTWLRLTSEPWILSPESDRAGARLVGRPLDVTSAPIPQAQPLVSGSVLLPSSGLPVIALAGHPDTSQSPVIAVVRDEDLDVLGQARPGQMVHLLG", "soluble on expression in E. coli": "not soluble"}, {"sequence": "MRIFERYNPSKVAKYVKTLFRGRLYIKGVGAFEFDYGKILLPKKQDKQHLLVMSEVNRQVIRLQAEMGLEHHHHHH", "soluble on expression in E. coli": "not soluble"}, {"sequence": "MKKIHMIPAALLIGSLALVSCAPSQPTQNAQTVSSVMTETPTYTSSSRSVESTAGTIAASEEATMTLLENSSGDPGSDSGGARYSLNSLKVSEQAAANAVLKAVLNDVSYQEFADSSYLEITGTPSADGTWGISFGGPSESASVEFSDGSISFSPVDMTVPATRLPQMGAFYETLTEEQLGMLETGLAVSTVDSSQQEMLLDLVSNSIGLADTETTATAISKIRATLSETYLFGTPDGLTLALSGPHVDFEVSHQGSTAKITYRDPSTDTLTAEDRVDTASVAAAPPEVVLEHHHHHH", "soluble on expression in E. coli": "not soluble"}, {"sequence": "EGEPIVEYQVKDLLYDQGVRVELHGKDLVSRVGEMTLDKVYYAFSKFFGLDIVTDYLEVPQDIPPRPPALCPGCPHRSSFIDLKKAITMASFKPNETFISG", "soluble on expression in E. coli": "not soluble"}, {"sequence": "MGSDKIHHHHHHMKKILIVTRTFGKYSQEPVEFLRKEGFEIIRSDTIDPDILKEVDALIVGTHPVTAEMVENSSLKIIAKHGVGVDNIDLEAATKKGIPVTITAGANSLSVAELTIAFIFALSRGLVWAHNKLFLERRWEGTVGQEVSGKTLGVVGFGSIGREVVKKAVCLGMNVLVYDPYVSKDSVRLLEATPVDDLEQLLKESDFVSLHVPLNESTKNMIGERELSLMKKSAFLINTSRGELVDEEALVKALKEGRIAGAALDVFSEEPPDANSPLFECPNLITTAHIGAHTKEAIFRMNMMAAQSIVDFFKGRIPRYVVNKEVIRILKEKGYQEIS", "soluble on expression in E. coli": "not soluble"}, {"sequence": "MAHHHHHHMQYVERLFSAYGHVADVKIVFEGSVQFAEVMYNAVDDADSAIAALHHHYCASRNTPLVVLYHVRSPCISEYGRKVGREYAQAAALGRDPSYIPLEGFDENYPRTDVPPPPSDREIFEGARWNDSSGPAGEGRLHSY", "soluble on expression in E. coli": "not soluble"}, {"sequence": "GMSEALSDSGLPPVQRVVTGHDAHGRAVFKSEDVTPTRMIPSGDASFLLVWTTATVPADNNDETDGRQREAGLTLDGGSVIRVVDMLPGKESPMHRTNSIDYGIVLEGEIELELDDGAKRTVRQGGIIVQRGTNHLWRNTTDKPCRIAFILIEAPAYLHNGQPLPEDKPDHK", "soluble on expression in E. coli": "soluble"}, {"sequence": "MSEPLLRGLAAGDPPSATGPVTGSADKVADVLIVGGGLVGGTLACALAEKGVSVVVIDGEDPEALLAAGYDGRCSAIALACQRLLDTIGLWDLLGGESQPILDIRVVDGGSPLFLHYAQAEAQGPMGYMVENRLLRQAILTRLGRLPAATLLAPARMTALRRDLDGVSATLSDGQTVRARLVVGADGRRSQVRESAGIGIRTLGYGQTAIVLTVEHERSHRGCAVEHFLPAGPFAILPMPGNRSSLVWTERSDLVPGLLALPAEHFQAELERRFGDHLGWVRPVGPRFSYRLTLQAANRYVDHRLALVGDAAHGMHPVAGQGMNYGLRDVAVLAERLVAAQRLGLDPGAPALLAEYEALRRPDNLLMLAITDALVRLFSNDIAPVALARRLGIGAVERMGPLKRLFMRHAMGTLKLGPEPPRLMRGVPLLEHHHHHH", "soluble on expression in E. coli": "soluble"}, {"sequence": "MGHHHHHHSHMQSYLPNDTVESGIHPVYFCSTHYIEMLLKAELPLVFSAFHMSGFAPSQICLQWITQCFWNYLDWIEICHYIATCVFLGPDYQVYICIAVFKHLQQDILQHTQTQDLQVFLKEEALHGFRVSDYFEYMEILEQNYRTVLLRDMRNIRLQST", "soluble on expression in E. coli": "not soluble"}, {"sequence": "MTETGGRHLLEALTLCEVILSRYKRCGLQVDETETKAFQAVSERFHEITHATQGDNAAFVKSQKIIKMAPAIPTIGAVFQTPLESVTKLMEKCIDLCLPIKEVFIMLNEQISAVLRTKNTRTYYLDSGDDLLKDPVNGIAALVDERTPLGKTLFCTRPFSIAGTLYIPLLHNETVIGCVESPSGRTDYHSQAIIDAVLRVAATVIHNTIESERLNWNKEKAEAMLTMATQLARDNLDEAVLANSIMNTAKVLTESDRCSIFLVKDDTLEAHFEDGNIVAIPIATGIAGYVAQTGQTVKISDAYSDDRFNREVDKATGYRTKTILCMPVTYEGSIVAVAQLINKLDMVTESGLRLPRTFGKRDEELFQTFSMFAGASLRNCRINEKLINEKRKSDAILDVVTLLSNTDIRDVDGIVRHVLHGAKRLLYADRSALFLVDKERNELYSRIADSVAGKEIRFPCGQGIAGVVASTGIGENILDAYQDPRFNREVDKQLGYRTQTLLCEPIVLNGEILAVVQLVNKLNEAGEVTVFTESDRETFRVFSLFAGISINNSHLLEFAVKAGREMMELNENRALAGGRTGSLRNIKRPLAITETERQAVRDINLAHLDITSIDFDLFYLRENMDLPLDAAAAVAYRLIVGTGLPQKFRCRDDTLLNFILQCRKKYRNVPYHNFYHVVDVCQTIYTFLYKGAVCEKLTELDCFVLLVTALVHDLDHMGLNNSFYLKTDSPLGILSSASGNASVLEVHHCNLAVEILSDPDSDVFEGLDATDRTLAYRSMIDCVLATDMAKHNELLSLFLVAMEKPYRIGDVASRQMMMDVIVKAGDVSNVTKPFDISRLWAMAVTEEFYRQGDMEKEKGVEVLPMFDRSKNTELAKGQIGFIDFVAGPFFKKIVSASLTGMQWTVERVESNRLEWQRTLDLKAAGDGNK", "soluble on expression in E. coli": "not soluble"}, {"sequence": "MDEIAIDPSINQDMSASEIYRFEGTLYTLPFVTKNNDISWNKSRDEYKSECRTFPPLYKSLFDRQKCGKVRFSPPLSLEQNVNAHLKGSSSQHMTTILQGVEDAGYVFPDIDMLVTTEVLNTIAGSIFNQEKSWKLRAYVTQVQGKNMVIVCDDDFEHHQRISSTQSDFPIERTEALNFAHSICVRDGTRELNNSLHGSEVVVSTIKFREKSVKMIVIGEVDLVTGKNNKSLNTIVATGRTARASFGHNVESRVDSLDYLWSRCFWLGQRLCLVGMRSTEEAPVSSAYLYSLYPPTLKERKRTNYRVDVATTCVAQVMIRLREEAAKMPHANWIIEYTGRDKEFDPAFIKINVAPDTHSFLLVQEYWHIEKEAFESAEEQKKAEDQNVVEPEKIVRTFHQMKRLPGVRKSGTIAKQFQKIINSMSS", "soluble on expression in E. coli": "not soluble"}]}]}
